Source: patent publication US20060110789

Target: diketide-ACP4(Ø) (DEBS ACP4 without linker, loaded with diketide), Q03132
Sequence (Q03132 other isoform, or with tags, fused parts or gaps): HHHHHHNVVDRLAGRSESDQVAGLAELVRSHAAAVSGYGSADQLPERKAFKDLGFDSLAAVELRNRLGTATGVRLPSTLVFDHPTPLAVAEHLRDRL

B1: (5)M2+TE (module 2 of DEBS with the N-terminal linker of module 5, fused to thioesterase) (protein)
chain: MSGDNGMTEEKLRRYLKRTVTELDSVTARLREVEHRAGIAIVGMACRLPGEVDSPERLWELITSGRDSAAEVPDDRGWVPDELMASDAAGTRAHGNFMAGAGDFDAAFFGISPREALAMDPQQRQALETTWEALESAGIPPETLRGSDTGVFVGMSHQGYATGRPRPEDGVDGYLLTGNTASVASGRIAYVLGLEGPALTVDTACSSSLVALHTACGSLRDGDCGLAVAGGVSVMAGPEVFTEFSRQGALSPDGRCKPFSDEADGFGLGEGSAFVVLQRLSDARREGRRVLGVVAGSAVNQDGASNGLSAPSGVAQQRVIRRAWARAGITGADVAVVEAHGTGTRLGDPVEASALLATYGKSRGSSGPVLLGSVKSNIGHAQAAAGVAGVIKVLLGLERGVVPPMLCRGERSGLIDWSSGEIELADGVREWSPAADGVRRAGVSAFGVSGTNAHVIIAEPPEPEPVPQPRRMLPATGVVPVVLSARTGAALRAQAGRLADHLAAHPGIAPADVSWTMARARQHFEERAAVLAADTAEAVHRLRAVADGAVVPGVVTGSASDGGSVFVFPGQGAQWEGMARELLPVPVFAESIAECDAVLSEVAGFSVSEVLEPRPDAPSLERVDVVQPVLFAVMVSLARLWRACGAVPSAVIGHSQGEIAAAVVAGALSLEDGMRVVARRSRAVRAVAGRGSMLSVRGGRSDVEKLLADDSWTGRLEVAAVNGPDAVVVAGDAQAAREFLEYCEGVGIRARAIPVDYASHTAHVEPVRDELVQALAGITPRRAEVPFFSTLTGDFLDGTELDAGYWYRNLRHPVEFHSAVQALTDQGYATFIEVSPHPVLASSVQETLDDAESDAAVLGTLERDAGDADRFLTALADAHTRGVAVDWEAVLGRAGLVDLPGYPFQGKRFWLLPDRTTPRDELDGWFYRVDWTEVPRSEPAALRGRWLVVVPEGHEEDGWTVEVRSALAEAGAEPEVTRGVGGLVGDCAGVVSLLALEGDGAVQTLVLVRELDAEGIDAPLWTVTFGAVDAGSPVARPDQAKLWGLGQVASLERGPRWTGLVDLPHMPDPELRGRLTAVLAGSEDQVAVRADAVRARRLSPAHVTATSEYAVPGGTILVTGGTAGLGAEVARWLAGRGAEHLALVSRRGPDTEGVGDLTAELTRLGARVSVHACDVSSREPVRELVHGLIEQGDVVRGVVHAAGLPQQVAINDMDEAAFDEVVAAKAGGAVHLDELCSDAELFLLFSSGAGVWGSARQGAYAAGNAFLDAFARHRRGRGLPATSVAWGLWAAGGMTGDEEAVSFLRERGVRAMPVPRALAALDRVLASGETAVVVTDVDWPAFAESYTAARPRPLLDRIVTTAPSERAGEPETESLRDRLAGLPRAERTAELVRLVRTSTATVLGHDDPKAVRATTPFKELGFDSLAAVRLRNLLNAATGLRLPSTLVFDHPNASAVAGFLDICCAGTAAISGPHEFTRLAGALRGIAPVRAVPQPGYEEGEPLPSSMAAVAAVQADAVIRTQGDKPFVVAGHSAGALMAYALATELLDRGHPPRGVVLIDVYPPGHQDAMNAWLEELTATLFDRETVRMDDTRLTALGAYDRLTGQWRPRETGLPTLLVSAGEPMGPWPDDSWKPTWPFEHDTVAVPGDHFTMVQEHADAIARHIDAWHHHHHH
With B1 as the protein, how does the “kcat/KM, fold decrease against diketide-ACP4(4) with the same module” value read?
Its value is “the kcat/KM values drop approximately 70-300 fold”.
